Measurements from publication PMC2141704.

Target: GST-mouse ZO-1 (1–862 amino acids) (mouse) (UniProt P39447)
Assay: pull-down

UniProt P39447, sequence (P39447 1-862): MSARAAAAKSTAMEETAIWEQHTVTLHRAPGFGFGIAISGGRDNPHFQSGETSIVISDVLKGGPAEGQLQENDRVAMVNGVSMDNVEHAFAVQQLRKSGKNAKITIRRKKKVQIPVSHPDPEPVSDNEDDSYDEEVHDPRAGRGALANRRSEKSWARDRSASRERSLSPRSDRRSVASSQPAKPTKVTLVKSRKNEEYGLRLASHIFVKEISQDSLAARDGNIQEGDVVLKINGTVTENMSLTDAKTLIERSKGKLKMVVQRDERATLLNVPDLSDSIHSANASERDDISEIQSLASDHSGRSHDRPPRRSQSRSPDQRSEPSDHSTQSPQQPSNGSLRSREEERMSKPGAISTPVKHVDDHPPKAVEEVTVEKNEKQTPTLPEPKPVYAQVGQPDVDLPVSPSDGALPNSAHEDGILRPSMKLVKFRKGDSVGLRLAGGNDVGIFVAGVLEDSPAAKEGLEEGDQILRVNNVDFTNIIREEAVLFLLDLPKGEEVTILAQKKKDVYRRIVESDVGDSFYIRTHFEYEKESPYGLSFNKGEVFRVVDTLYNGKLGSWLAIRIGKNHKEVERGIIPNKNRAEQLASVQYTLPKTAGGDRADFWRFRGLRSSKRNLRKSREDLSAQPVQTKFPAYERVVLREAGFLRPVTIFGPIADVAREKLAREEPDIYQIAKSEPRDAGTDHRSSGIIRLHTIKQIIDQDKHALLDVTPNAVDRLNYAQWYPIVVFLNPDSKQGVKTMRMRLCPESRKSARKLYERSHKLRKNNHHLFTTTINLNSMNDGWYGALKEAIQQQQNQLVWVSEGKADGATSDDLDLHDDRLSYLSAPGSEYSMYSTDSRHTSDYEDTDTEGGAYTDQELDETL

- Kd: 260 nM
Substance: MBP-AF-6 (36–206 amino acids) (domain or fragment)
